# Test results: US20230088052A1 (JIANGSU HENGRUI PHARMACEUTICALS, published 2023)
# Where a chain is given by its changes, count along the chain named.
# B1: murine monoclonal antibody 7B10 (antibody, V domains shown)
# VH: QVQLQQPGTELLKPGASVSLSCKASGYTFTSYWMHWVKQRPGQGLEWIGLIHPNSDTTKFSENFKTRATLTIDKSSSTAYMKLSSLTSEDSAVYYCAKSKIITTIVARHWYFDVWGTGTTVTVSS
# VL: DIVLTQSPPSLAVSLGQRATISCKASQSVDYGGDSYMNWYQQKLGQPPKVLIYAASNLESGIPARFSGSGSGTDFTLNIHPVEEEDVATYYCQHSNENPPTFGGGTKLEIK
# notes: also called hybridoma 7B10
# B2: Dupilumab (antibody, V domains shown)
# VH: EVQLVESGGGLEQPGGSLRLSCAGSGFTFRDYAMTWVRQAPGKGLEWVSSISGSGGNTYYADSVKGRFTISRDNSKNTLYLQMNSLRAEDTAVYYCAKDRLSITIRPRYYGLDVWGQGTTVTVSS
# VL: DIVMTQSPLSLPVTPGEPASISCRSSQSLLYSIGYNYLDWYLQKSGQSPQLLIYLGSNRASGVPDRFSGSGSGTDFTLKISRVEAEDVGFYYCMQALQTPYTFGQGTKLEIKR
# B3: murine monoclonal antibody 25G7 (antibody, V domains shown)
# VH: EVQLVESGGGLVKPGGSLKLSCAASGFTFSDYGMHWVRQAPEKGLEWVAFISSGSSIIYYADIVKGRSTISRDNAKNTLFLQMTSLRSEDTAMYYCTRGNKRGFFDYWGQGTILTVSS
# VL: QIVLTQSPALMSASPGEKVTMTCNASSSVSYMYWYQRKPRSSPKPWIYLTSNLASGVPVRFSGSGSGTSYSLTISSMEAEDAATYYCQQWRSNPPMLTFGSGTKLEVK
# notes: also called hybridoma 25G7
# B4: human-murine chimeric antibody 7B10-C (antibody, V domains shown)
# VH: B1 VH
# VL: B1 VL
# notes: Expressed in HEK293 cells
# B5: humanized antibody hu7B10 (antibody, human IgG1, kappa, V domains shown)
# VH: EVQLVQSGAEVKKPGASVKVSCKASGYTFTSYWMHWVRQAPGQGLEWMGLIHPNSDTTKFSENFKTRVTMTIDTSISTAYMELSRLRSDDTAVYYCAKSKIITTIVARHWYFDVWGQGTTVTVSS
# VL: DIVLTQTPLSLSVTPGQPASISCKASQSVDYGGDSYMNWYLQKPGQPPQLLIYAASNLESGVPDRFSGSGSGTDFTLKISRVEAEDVGVYYCQHSNENPPTFGGGTKVEIKR
# notes: Uses the VH-b heavy chain and the VL-b light chain
# B6: human-murine chimeric antibody 25G7-C (antibody, V domains shown)
# VH: B3 VH
# VL: B3 VL
# notes: Expressed in HEK293 cells
# B7: humanized antibody hu25G7 (antibody, human IgG4 S228P, kappa, V domains shown)
# VH: B3 VH with K13Q, K19R, E42G, T78S, F80Y, T84N, S88A, M93V, I113L, L114V
# VL: EIVLTQSPATLSLSPGERATLSCNASSSVSYMYWYQQKPGQAPRLLIYLTSNLASGIPARFSGSGSGTDFTLTISSLEPEDFAVYYCQQWRSNPPMLTFGGGTKVEIKR
# notes: Uses the VH-c heavy chain and the VL-a light chain; also called wild-type hu25G7
# B8: hu25G7-A antibody (antibody, human IgG4 S228P, kappa, V domains shown)
# VH: B3 VH with K13Q, K19R, E42G, F80Y, T84N, S88A, M93V, I113L, L114V
# VL: B7 VL with N24R, S30P, S92A, N93Y
# B9: hu25G7-B antibody (antibody, human IgG4 S228P, kappa, V domains shown)
# VH: B3 VH with K13Q, K19R, E42G, F80Y, T84N, S88A, M93V, I113L, L114V
# VL: EIVLTQSPATLSLSPGERATLSCRASPGVPPLAWYQQKPGQAPRLLIYLASSRPSGIPARFSGSGSGTDFTLTISSLEPEDFAVYYCQQWRSNPPMLTFGGGTKVEIKR
# Molecular target: T1, human IL-4R on cells (HEK-Blue IL-4 cells, TF-1 cells) (human, UniProt P24394 26-825)
# Experiment: cell-based or functional assay
Binder,IC50 for blocking binding of HEK293-Blue IL-4 cells (to IL-4),IC50 for inhibiting IL-4-related proliferation of TF-1 cells
B1,0.0798 µg/mL,0.418 µg/mL
B2,0.00507 µg/mL,0.102 µg/mL
B3,0.000975 µg/mL,0.0513 µg/mL

# Molecular target: T2, his-tagged human IL-4R recombinant protein (h-IL-4R-his) (human, UniProt P24394 26-232)
# T2 construct: range 26-232; Made by Acrobiosystems in HEK293; also called Human IL-4R-his; not shown: his tag
# Experiment: Biacore SPR: antibody captured, IL-4R antigen in flow, 1:1 model
# Description: Human antibody capture antibody was covalently coupled to a biosensor chip CMS of Biacore instrument (Biacore X100, GE) according to the method described in the instruction of human antibody capture kit (Cat #BR-1008-39, GE), and thus a certain amount of antibodies to be tested were captured based on affinity. Then a series of concentration gradients of IL-4R antigens (the IL-4R antigens all purchased from Acrobiosystems, Cat #ILR-H5221) flowed through the surface of chip, and the Biacore instrument (Biacore X100, GE) was used to detect the reaction signals in real time to obtain the binding and dissociation curves. After each cycle of dissociation was completed, the biochip was washed and regenerated with a regeneration solution prepared in the human antibody capture kit. The amino coupling kit used in the experiment was purchased from GE corporation (Cat #BR-1000-50, GE), and the buffer was HBS-EP+ 10× buffer solution (Cat #BR-1006-69, GE) diluted to 1× (pH 7.4) with D.I. Water.
# The data obtained from the experiment were fitted with BiacoreX100 evaluation software 2.0 GE software with a (1:1) binding model to obtain affinity values.
row,Binder,Kd
1,B4,0.278 nM
2,B5,0.284 nM
3,B6,0.725 nM
4,B7,1.07 nM

# Molecular target: T1, human IL-4R on cells (HEK-Blue IL-4 …)
# Experiment: cell-based or functional assay
# Remark: another data set of the same source
Binder,Blocking binding of HEK293-Blue IL-4 cells (to IL-4) (IC50),Inhibiting IL-4-related proliferation of TF-1 cells (IC50)
B4,0.00903 µg/mL,0.0464 µg/mL
B2,0.00324 µg/mL,0.207 µg/mL
B6,0.00202 µg/mL,0.0203 µg/mL

# Molecular target: T3, his-tagged mouse IL-4R recombinant protein (m-IL-4R-his) (mouse, UniProt P16382 26-233)
# T3 construct: range 26-233; also called Murine IL-4R-his; not shown: his tag
# T3 sequence (looked up): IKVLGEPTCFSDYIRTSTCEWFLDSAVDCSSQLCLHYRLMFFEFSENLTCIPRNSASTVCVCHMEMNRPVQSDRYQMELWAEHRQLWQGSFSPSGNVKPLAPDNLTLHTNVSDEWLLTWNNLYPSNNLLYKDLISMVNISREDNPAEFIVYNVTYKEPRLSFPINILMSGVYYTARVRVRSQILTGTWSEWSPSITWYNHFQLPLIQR
# Experiment: ELISA, IL-4R-his coated on the plate
row,Binder,binding result
1,B1,no binding
2,B3,no binding

# Molecular target: T4, humanized Fc-tagged human IL-4R recombinant protein (h-IL-4R-Fc) (human, UniProt P24394 26-232)
# T4 construct: range 1-232; The printed range starts at Met1, so it includes the signal peptide of the construct; also called Human IL-4R-Fc; not shown: Fc tag
# Experiment: blocking ELISA of human IL-4/IL-4R
# Protocol: (§1) Human IL-4R-Fc protein was coated on a 96-well microplate, 100 μL per well at a concentration of 0.5 μg/mL, and incubated overnight at 4° C. The plate was washed three times with washing buffer at 250 μL per well. A blocking solution was added at 200 μL per well and the plate was incubated at room temperature for 2 h. The plate was washed three times with washing buffer at 250 μL per well. Anti-IL-4R antibody to be tested diluted in diluent was added at 100 μL per well, and the plate was incubated at room temperature for 1 h. The plate was washed three times with washing buffer at 250 μL per well. […] HRP-labeled Neutravidin diluted in a diluent at 1:5000 was added, and the plate was incubated at room temperature for 1 h. The plate was washed three times with washing buffer at 250 μL per well. TMB was added at 100 μL per well, and the mixture was reacted for 15 min in the dark. 0.16 M/L sulfuric acid was added at 50 μL per well.
row,Binder,IC50
1,B8,0.144 µg/mL
2,B9,0.108 µg/mL

# Molecular target: T1, human IL-4R on cells (HEK-Blue IL-4 …)
# Experiment: cell-based or functional assay
# Remark: another data set of the same source
Binder,Blocking binding of HEK293-Blue cells (to IL-4) (IC50),Blocking binding of HEK293-Blue cells (to IL-13) (IC50),Inhibiting IL-4-related proliferation of TF-1 cells (IC50),Inhibiting IL-13-related proliferation of TF-1 cells (IC50)
B2,0.0125 µg/mL,0.0148 µg/mL,0.101 µg/mL,0.0181 µg/mL
B8,0.00649 µg/mL,0.01 µg/mL,0.0837 µg/mL,0.0132 µg/mL
B9,0.0066 µg/mL,0.00838 µg/mL,0.051 µg/mL,0.0137 µg/mL

# Molecular target: T2, his-tagged human IL-4R recombinant …
# Experiment: binding ELISA, human IL-4R-his coated
# Protocol: ELISA experiment was used to detect binding properties of anti-IL-4R antibodies. A microplate was coated with his-tagged IL-4R recombinant protein. After the antibody was added to each well, the activity of the binding of the antibody to the antigen was detected by adding a secondary antibody (HRP-conjugated anti-primary antibody Fc antibody) and HRP substrate TMB.
# Human or rhesus IL-4R-his protein was coated on a 96-well microplate, 100 μL per well at a concentration of 0.5 μg/mL, and incubated overnight at 4° C. The plate was washed three times with washing buffer at 250 μL per well. A blocking solution was added at 200 μL per well and the plate was incubated at room temperature for 2 h. The plate was washed three times with washing buffer at 250 μL per well. Anti-IL-4R antibody to be tested diluted in diluent was added at 100 μL per well. The plate was incubated at room temperature for 1 h. The plate was washed three times with washing buffer at 250 μL per well. HRP-labeled goat anti-human IgG secondary antibody diluted at 1:20000 with diluent was added at 100 μL per well. The plate was incubated at room temperature for 1 h. The plate was washed three times with washing buffer at 250 μL per well. TMB was added at 100 μL per well, and the mixture was reacted for 15 min in the dark. 0.16 M/L sulfuric acid was added at 50 μL per well. The OD value was read at 450 nm by a Thermo MultiSkanFc microplate reader and the binding EC₅₀ value of the anti-IL-4R antibody to IL-4R was calculated.
row,Binder,EC50
1,B4,0.0118 µg/mL
2,B1,0.0458 µg/mL
3,B5,0.012 µg/mL
4,B3,0.00332 µg/mL
5,B6,0.00909 µg/mL
6,B7,0.00341 µg/mL

# Molecular target: T4, humanized Fc-tagged human IL-4R …
# Experiment: blocking ELISA: human IL-4R-Fc coated, antibody blocks the binding of IL-4
# Protocol: as §1
row,Binder,IC50
1,B4,0.162 µg/mL
2,B1,0.0299 µg/mL
3,B5,0.0753 µg/mL
4,B3,0.00813 µg/mL
5,B6,0.0397 µg/mL
6,B7,0.0236 µg/mL

# Molecular target: T1, human IL-4R on cells (HEK-Blue IL-4 …)
# Experiment: cell-based or functional assay
# Remark: another data set of the same source
Binder,Blocking binding of HEK293-Blue IL-4 cells (to IL-4) (IC50),Inhibiting IL-4-related proliferation of TF-1 cells (IC50)
B2,0.000667 µg/mL,0.491 µg/mL
B5,0.00687 µg/mL,0.112 µg/mL
B7,0.000943 µg/mL,0.0296 µg/mL
